According to publication PMC9445180:

Target: HTRA1^PD + 7-mer ABP (purified covalent complex of HTRA1^PD and biotin-DPMFKLV-phosphonate) (human) (UniProt Q92743)
Test: SPR; His6-tagged HTRA proteins (about 200 RU) captured with the His-capture kit on a CM5 chip, Fab15H6.v4 as analyte, single-cycle kinetics, three-fold dilutions from 1 nM or 1 μM; absence of binding verified with 3 μM Fab; Biacore S200, 25 °C, HBS-EP; 1:1 Langmuir model

Chain of HTRA1^PD + 7-mer ABP (purified covalent complex of HTRA1^PD and biotin-DPMFKLV-phosphonate) (human) (Q92743 161-379, one chain of several): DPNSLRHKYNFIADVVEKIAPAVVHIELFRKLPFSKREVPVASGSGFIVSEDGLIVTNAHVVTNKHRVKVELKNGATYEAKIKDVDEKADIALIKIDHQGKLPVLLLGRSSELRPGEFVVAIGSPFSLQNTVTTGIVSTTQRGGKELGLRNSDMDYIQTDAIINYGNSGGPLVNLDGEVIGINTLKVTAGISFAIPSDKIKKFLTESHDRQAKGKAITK

B1: Fab15H6.v4 (Fab, V domains shown)
VH: EVQLVQSGAEVKKPGASVKVSCKASGYKFTDSEMHWVRQAPGQGLEWIGGVDPETEGAAYNQKFKGRATITRDTSTSTAYLELSSLRSEDTAVYYCTRGYDYDYALDYWGQGTLVTVSS
VL: DIQMTQSPSSLSASVGDRVTITCRASSSVEFIHWYQQKPGKAPKPLISATSNLASGVPSRFSGSGSGTDFTLTISSLQPEDFATYYCQQWSSAPWTFGQGTKVEIK
**Q.** For B1, which Kd is on record?
**A.** The Kd was 210 pM.
